From paper PMC12193089, “Genome-Wide Identification, Plasma Membrane Localization, and Functional Validation of the SUT Gene Family in Yam (Dioscorea cayennensis subsp. rotundata)” (International Journal of Molecular Sciences, 2025) come the findings set out here.

One may read the Km as the concentration of substrate that gives half-maximal velocity.

Substrate in this data set: OC[C@H]1O[C@@](CO)(O[C@H]2O[C@H](CO)[C@@H](O)[C@H](O)[C@H]2O)[C@@H](O)[C@@H]1O
Nature of the data set: cells, lysate or membranes. The note with it: PBS pH 5.5, 30 °C, labelled compound, methods print a final sucrose concentration of 100 mM, at odds with a μM Km. The data set is classed as cell-based, Dioscorea cayenensis.

B1: DrSUT1 (Dioscorea cayenensis subsp. rotundata) (protein)
chain: MDAVSIRVPYRNLKEAELELEMGHLNGDPSGEIHDLGSRPSGGLPPSFPSASPSSPDEYGSSDASHRSQPRSSMKTLVLSCIVAAGVQFGWALQLSLLTPYIQTLGIEHAFSSFIWLCGPITGFIVQPCVGIWSDKCTLKLGRRRPFILAGSLMISFAVILIGFAADIGYLLGDTDQDCRSYKGPRWRAAAIFVIGFWMLDLANNTVQGPARALLADLSGPDQCNSANAIFCSWMALGNILGFSSGANGNWHRWFPFLTTKACCEACGNLKAAFLVAVIFLMFCTFVTLYFAKEVPLEAKPTQQFSDGAPLLNDKQQHGHRGSPTNSPKLENGEKLSVDLMADKASSRNPSNFDRNAKNDEMEALSDGPGAVLVKLLTSLRHLPPGMYSVLLVMALTWSSWFPFFLFDTDWMGREVYRGDPSGTESEIGSYQKGVRDGAFGLLLNSVVLLVASFLIDPICRRMGARMVWAMSNFIVFICMAATTIISLWSINEHLTGIQHVVGANKAVRVGALVIFSLLGFPLAITYSVPFSVTAELTADSGGGQGLATGVLNLAIVIPQMVVALGAGPWDALFGGGNIPAFALASAFALAASFLAFKRLPTLSGSYSSVGFHGFG
notes: no tag told
Turning to B1, the Km worked out at 76.69 µM.
